In the supplement of paper PMC11316812:
± gives the standard deviation of the averaged measurements.

Key:
[1] = tested on: MCF7; assay: percentage of EdU-negative (G0-arrested) nuclei per well, 72 h; higher = more G0 arrest; settings: reference: sequence is the full UniProt precursor, the tested protein was the secreted form or ectodomain
[2] = tested on: hTERT-HMEC; assay: as above; settings: reference: sequence is the full UniProt precursor, the tested protein was the secreted form or ectodomain
[3] = protein concentration 0.0257143 µM
[4] = protein concentration 0.257143 µM
[5] = protein concentration 0.0209225 µM
[6] = protein concentration 0.209225 µM
[7] = protein concentration 0.0225 µM
[8] = protein concentration 0.01655 µM
[9] = protein concentration 0.1655 µM
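Further: secreted proteins added to cultured cells, EdU pulse at the end, nuclei found by Hoechst imaging, EdU status from nuclear versus surrounding ring intensity ratio, PBS as neutral control.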

## MPGPWLLLALALTLNLTGVPGGRAQPEAAQQEAVTAAEHPGLDDFLRQVERLLFLRENIQRLQGDQGEHSASQIFQSDWLSKRQHPGKREEEEEEGVEEEEEEEGGAVGPHKRQHPGRREDEASWSVDVTQHKRQHPGRRSPWLAYAVPKRQHPGRRLADPKAQRSWEEEEEEEEREEDLMPEKRQHPGKRALGGPCGPQGAYGQAGLLLGLLDDLSRSQGAEEKRQHPGRRAAWVREPLEE
[1]; [3]
  percentage of EdU-negative: 23.3 ± 4.8%
[1]; [4]
  percentage of EdU-negative: 25.8 ± 1.8%
[2]; [3]
  percentage of EdU-negative: 5.72 ± 0.18%
[2]; [4]
  percentage of EdU-negative: 5.31 ± 0.67%

## MPGQELRTVNGSQMLLVLLVLSWLPHGGALSLAEASRASFPGPSELHSEDSRFRELRKRYEDLLTRLRANQSWEDSNTDLVPAPAVRILTPEVRLGSGGHLHLRISRAALPEGLPEASRLHRALFRLSPTASRSWDVTRPLRRQLSLARPQAPALHLRLSPPPSQSDQLLAESSSARPQLELHLRPQAARGRRRARARNGDHCPLGPGRCCRLHTVRASLEDLGWADWVLSPREVQVTMCIGACPSQFRAANMHAQIKTSLHRLKPDTVPAPCCVPASYNPMVLIQKTDTGVSLQTYDDLLAKDCHCI
[1]; [5]
  percentage of EdU-negative: 23.8 ± 1.7%
[1]; [6]
  percentage of EdU-negative: 30.5 ± 2.1%
[2]; [5]
  percentage of EdU-negative: 4.78 ± 0.13%
[2]; [6]
  percentage of EdU-negative: 8.07 ± 2.2%

## MPGRSCVALVLLAAAVSCAVAQHAPPWTEDCRKSTYPPSGPTYRGAVPWYTINLDLPPYKRWHELMLDKAPVLKVIVNSLKNMINTFVPSGKIMQVVDEKLPGLLGNFPGPFEEEMKGIAAVTDIPLGEIISFNIFYELFTICTSIVAEDKKGHLIHGRNMDFGVFLGWNINNDTWVITEQLKPLTVNLDFQRNNKTVFKASSFAGYVGMLTGFKPGLFSLTLNERFSINGGYLGILEWILGKKDVMWIGFLTRTVLENSTSYEEAKNLLTKTKILAPAYFILGGNQSGEGCVITRDRKESLDVYELDAKQGRWYVVQTNYDRWKHPFFLDDRRTPAKMCLNRTSQENISFETMYDVLSTKPVLNKLTVYTTLIDVTKGQFETYLRDCPDPCIGW
[1]; [7]
  percentage of EdU-negative: 26.7 ± 2.9%
[1]; protein concentration 0.225 µM
  percentage of EdU-negative: 26.1 ± 0.96%
[2]; [7]
  percentage of EdU-negative: 4.75 ± 0.61%
[2]; protein concentration 0.225 µM
  percentage of EdU-negative: 12.9 ± 1.1%

## MPGSPRPAPSWVLLLRLLALLRPPGLGEACSCAPAHPQQHICHSALVIRAKISSEKVVPASADPADTEKMLRYEIKQIKMFKGFEKVKDVQYIYTPFDSSLCGVKLEANSQKQYLLTGQVLSDGKVFIHLCNYIEPWEDLSLVQRESLNHHYHLNCGCQITTCYTVPCTISAPNECLWTDWLLERKLYGYQAQHYVCMKHVDGTCSWYRGHLPLRKEFVDIVQP
[1]; [8]
  percentage of EdU-negative: 26.2 ± 1.7%
[1]; [9]
  percentage of EdU-negative: 27.1 ± 0.65%
[2]; [8]
  percentage of EdU-negative: 5.41 ± 0.19%
[2]; [9]
  percentage of EdU-negative: 6.76 ± 0.1%

## MPKGRQKVPHLDAPLGLPTCLWLELAGLFLLVPWVMGLAGTGGPDGQGTGGPSWAVHLESLEGDGEEETLEQQADALAQAAGLVNAGRIGELQGHYLFVQPAGHRPALEVEAIRQQVEAVLAGHEAVRWHSEQRLLRRAKRSVHFNDPKYPQQWHLNNRRSPGRDINVTGVWERNVTGRGVTVVVVDDGVEHTIQDIAPNYSPEGSYDLNSNDPDPMPHPDVENGNHHGTRCAGEIAAVPNNSFCAVGVAYGSRIAGIRVLDGPLTDSMEAVAFNKHYQINDIYSCSWGPDDDGKTVDGPHQLGKAALQHGVIAGRQGFGSIFVVASGNGGQHNDNCNYDGYANSIYTVTIGAVDEEGRMPFYAEECASMLAVTFSGGDKMLRSIVTTDWDLQKGTGCTEGHTGTSAAAPLAAGMIALMLQVRPCLTWRDVQHIIVFTATRYEDRRAEWVTNEAGFSHSHQHGFGLLNAWRLVNAAKIWTSVPYLASYVSPVLKENKAIPQSPRSLEVLWNVSRMDLEMSGLKTLEHVAVTVSITHPRRGSLELKLFCPSGMMSLIGAPRSMDSDPNGFNDWTFSTVRCWGERARGTYRLVIRDVGDESFQVGILRQWQLTLYGSVWSAVDIRDRQRLLESAMSGKYLHDDFALPCPPGLKIPEEDGYTITPNTLKTLVLVGCFTVFWTVYYMLEVYLSQRNVASNQVCRSGPCHWPHRSRKAKEEGTELESVPLCSSKDPDEVETESRGPPTTSDLLAPDLLEQGDWSLSQNKSALDCPHQHLDVPHGKEEQIC
[1]; [7]
  percentage of EdU-negative: 25.2 ± 2.4%
[1]; protein concentration 0.225 µM
  percentage of EdU-negative: 25.9 ± 0.42%
[2]; [7]
  percentage of EdU-negative: 4.85 ± 0.1%
[2]; protein concentration 0.225 µM
  percentage of EdU-negative: 5.83 ± 0.0087%
